Changes are numbered by the printed parent chain. Where two headings read alike, the source gives them in different places.
T1: his-tagged human CDH6 extracellular region protein (hCDH6 ECD-his) (human, UniProt P55285 54-615)
T1 construct: also called hCDH6-his; Human CDH6-his; not shown: his tag
T1 sequence: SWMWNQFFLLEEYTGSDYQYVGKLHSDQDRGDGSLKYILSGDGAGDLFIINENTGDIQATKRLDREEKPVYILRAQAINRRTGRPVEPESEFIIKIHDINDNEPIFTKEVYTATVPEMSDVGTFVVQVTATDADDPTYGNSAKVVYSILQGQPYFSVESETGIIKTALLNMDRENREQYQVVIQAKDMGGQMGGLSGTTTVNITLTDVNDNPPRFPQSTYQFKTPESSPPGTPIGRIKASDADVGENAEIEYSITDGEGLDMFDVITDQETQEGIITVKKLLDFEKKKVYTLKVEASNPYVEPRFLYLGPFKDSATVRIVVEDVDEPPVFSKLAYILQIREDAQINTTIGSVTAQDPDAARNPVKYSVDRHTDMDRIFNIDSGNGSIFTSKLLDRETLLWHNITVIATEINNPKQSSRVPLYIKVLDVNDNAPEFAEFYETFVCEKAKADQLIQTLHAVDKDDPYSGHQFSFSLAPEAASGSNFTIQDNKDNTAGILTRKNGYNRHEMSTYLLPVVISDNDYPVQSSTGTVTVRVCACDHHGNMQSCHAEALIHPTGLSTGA

B1: CHI-CDH6-2 (antibody, human IgG1, kappa, V domains shown)
VH: EVQLQQSGPELVKPGASVRISCKASGYTFTDYYMNWVKQSHGKSLEWIGDIDPNNANTTYNQKFKGKATLTVDKSSSTAYMELRSLTSEDSAVYSCASFGYDVEWFGYWGQGTLVTVSA
VL: QIVLTQSPALMSASPGEKVTMTCSASSSVSYMYWYQQKPRSSPKPWIYLTSNLASGVPARFSGSGSGTSYSLTISSMEAEDAATYYCQQWSSNPFTFGSGTKLEIKR
B2: CHI-CDH6-3 (antibody, human IgG1, kappa, V domains shown)
VH: QVQLQQPGAELVKPGASVKLSCKASGYTFTSYWIHWVKQRPGQGLEWIGEINPSNGVTNCNENFKSKATLTVDKSSSTAYMQLSSLTSEDSAVYYCTIPNLLWWYFDVWGAGTTVTVSS
VL: DIQMTQSPASLSVSVGETVTITCRASENIYSNLAWYQQKQGKSPQLLVYEATNLADGVPSRFSGSGSGTQYSLKINSLQSEDFGSYYCQHFWGTLWTFGGGTKLEIKR
B3: CHI-CDH6-4 (antibody, human IgG1, kappa, V domains shown)
VH: QVQLQQSGPELVKPGASVKISCKASGYAFSNFWMNWVKQRPGKGLEWIGWIYPGDGDTNYNGKFKDKATLTADKSSSTAYIQLSSLTSEDSAVYFCARLYDAWGFFDYWGQGTTLTVSS
VL: QIVLTQSPAIMSASPGQKVTITCSASSSVNYMHWYQQKLGSSPKLWIYDKSKLAPGVPARFSGSGSGTSYSLTISSMEAEDAASYFCHQWSSYPPMTFGGGTKLEIKR
B4: CHI-CDH6-5 (antibody, human IgG1, kappa, V domains shown)
VH: QVQLQQSGAELVRPGTSVKMSCKAAEYTFTNYWIGWVKQRPGHGLEWIGDLYPGGDHANYNEKFEGKATLTADTSSSTAYMQLSSLTSEDSAIYYCARGMLTTGFDSWGQGTTLTVSS
VL: DIVMSQSPSSLAVSAGEKVTMSCKSSQSLFNSRTRKNYLAWYQQKPGQSPKLLIYWASTRESGVPDRFTGSGSGTDFTLTISSVQAEDLAVYYCKQSYYLRTFGGGTKLEIKR
B5: CHI-CDH6-6 (antibody, human IgG1, kappa, V domains shown)
VH: EVQLQQSGPELVKPGDSVKMSCKASGYTFTDYYMAWVRQSHRKSLEWIGYIFPNSGGTDYSQKFKGKATLTVDKSSSTVYMELHSLTSEDSAVYYCARELGADYGDYYAMDHWGQGTSVSVSS
VL: DIQMTQSPASLSASVGETVTITCRASENIDSYLAWYQQKQGKSPQLLVYSATLLADGVPSRFSGSGSGTQYSLKINSLKSEDVARYYCQHYYRTPPTFGSGTKLEIKR
B6: CHI-CDH6-7 (antibody, human IgG1, kappa, V domains shown)
VH: EVKLVESGGGLVKPGGSLKVSCAASGFTFSDHGMAWVRQAPGKGPEWVAFISNLAYSIYYADTVTGRFTISRENAKNTLYLEMSSLRSEDTAMYYCARVYVKWYFDVWGAGTTVTVSS
VL: B5 VL with Y49F, S50A, K79Q, R93S, P96L, S100A, I106L
B7: CHI-CDH6-8 (antibody, human IgG1, kappa, V domains shown)
VH: EVQLQQSGPELVKPGDSVKMSCKASGYTFTDYYMAWIKQNHGKSLEWIGYIYPNNGGTDYNQKFRGKATLTVDKSSSAAYMELHSLTSEDSAVYYCAREIGTLYGDYYAMDYWGQGTSVTVSS
VL: B5 VL with S50T, K79Q, R93S
B8: CHI-CDH6-9 (antibody, human IgG1, kappa, V domains shown)
VH: QVQLQQPGAELVKPGASVKLSCKASGYTFTGYWMHWVRQRPGQGLEWIGEINPNNGGTNCNEQFKNKATLTVDKSSSTAYMQLSSLTSEDSAVFYCTISFGNYLFFDVWGAGTTVTVSS
VL: DIQMTQSPASLAASVGETITITCQASENIYFSLAWYQQKQGKSPQLLIYNANTLEDGVPSRFVGSGSGTQYSMKINSIQPEDTATYFCDQTYDFPWTFGGGTKLEIKR
B9: CHI-CDH6-14 (antibody, human IgG1, kappa, V domains shown)
VH: QIQLQQSGPELVKPGTSVKISCKASGYTFTDNYINWVRQRPGQGLEWIGWIYPGTGNSYYNEKFKGKATLTVDTSSSTAYMQFSSLTSEDSAVYLCASSYGDSFDYWGQGTTLTVSS
VL: DIQMTQTTSSLSASLGNRVTISCRASQDIRNYLNWYQQKPDGTFKLLISYTSRLHSGVPSRFSGSGSGTDYSLTVSNLEPEDIATYYCQQYSQLPWTFGGGSRLEIKR
notes: also called CHI- hCDH6-14
B10: DS-H01L02 (antibody, human IgG1, kappa, V domains shown)
VH: EVQLVQSGAEVKKPGASVKVSCKASGYTFTRNFMHWVRQAPGQGLEWMGWIYPGDGETEYAQKFQGRVTITADTSTSTAYMELSSLRSEDTAVYYCARGVYGGFAGGYFDFWGQGTLVTVSS
VL: DIQMTQSPSSLSASVGDRVTITCKASQNIYKNLAWYQQKPGKAPKLLIYDANTLQTGVPSRFSGSGSGSDFTLTISSLQPEDFATYFCQQYYSGWAFGQGTKVEIKR
B11: NOV0712 (antibody, human IgG1, kappa, V domains shown)
VH: QVQLLESGGGLVQPGGSLRLSCAASGFTFSSHGMHWVRQAPGKGLEWVSVISGSGSNTGYADSVKGRFTISRDNSKNTLYLQMNSLRAEDTAVYYCARQWGSYAFDSWGQGTLVTVSS
VL: DIQMTQSPSSLSASVGDRVTITCRASQSISSYLNWYQQKPGKAPKLLIYAVSTLQSGVPSRFSGSGSGTDFTLTISSLQPEDFATYYCQQSGTFPPTTFGQGTKVEIKR
B12: CHI-CDH6-11 (antibody, human IgG1, kappa, V domains shown)
VH: QIQLQQSGPELVKPGASVRISCKASGYTFTDYYITWVKLRPGQGLEWIGWIYPGSVNIKYNEKFKGKATLTVDTSSSTAYMQLNSLTSEDSAVYFCARGGYSWFPYWGQGTLVTVSA
VL: NIVMTQSPKSMSMSVGERVTLSCKASENVHTYVSWYQQKPEQSPKLLFYGASTRNTGVPDRFTGSGSATDFTLTISSVQAEDLADYYCGQSYSYPYTFGSGTKLEIKR
B13: CHI-CDH6-13 (antibody, human IgG1, kappa, V domains shown)
VH: DVQLQESGPGLVKPSQSLSLTCSVTGYSITKDSYWNWIRQFPGSKLEWMGFISYDGSRHYNPSLKNRISITRDTSKNQFFLQLNSVTTEDTATYYCARRDYADYWGQGTTLTVSS
VL: B1 VL with S14F, S26T, M32I, S75N, M77L, N93I, F95Y, S99G
B14: hCDH6-1-H1L1 (antibody, human IgG1, kappa, V domains shown)
VH: EVQLVQSGAEVKKPGSSVKVSCKASGYTFSNYWMHWVRQAPGQGLEWMGDIDPSHSETHYTQKFKDRVTITVDKSTSTAYMELSSLRSEDTAVYYCARGDLGRFDYWGQGTTVTVSS
VL: DIVMTQSPDSLAVSLGERATINCRASESVSIHGTHLMHWYQQKPGQPPKLLIYAASNLESGVPDRFSGSGSETDFTLTISSLQAEDVAVYYCQQSFEDPWTFGGGTKVEIKR

Assays:
[1] = biological target: human CDH6 protein, full length, on cells (OVCAR3, PA-1) (human) (UniProt P55285); assay: FACS, PA-1 cells
[2] = biological target: human CDH6 protein, full length, on cells (OVCAR3, PA-1) (human) (UniProt P55285); assay: FACS, OVCAR3 cells
[3] = biological target: his-tagged human CDH6 extracellular region protein (hCDH6 ECD-his) (human) (UniProt P55285); assay: ELISA, antigen coated
[4] = biological target: monkey CDH6 protein (cynoCDH6 ECD-his) (monkey (cyno)); assay: ELISA, antigen coated
[5] = biological target: murine CDH6 protein (mCDH6 ECD-his) (mouse) (UniProt P97326); assay: ELISA, antigen coated
[6] = biological target: human CDH6 with EC1 removed, on HEK293T cells (HEK293T-hCDH6-EC1 deletion) (human) (UniProt P55285); assay: FACS, HEK293T-hCDH6-EC1 deletion cells
[7] = biological target: human CDH6 with EC2 removed, on HEK293T cells (HEK293T-hCDH6-EC2 deletion) (human) (UniProt P55285); assay: FACS, HEK293T-hCDH6-EC2 deletion cells
[8] = biological target: human CDH6 with EC3 removed, on HEK293T cells (HEK293T-hCDH6-EC3 deletion) (human) (UniProt P55285); assay: FACS, HEK293T-hCDH6-EC3 deletion cells
[9] = biological target: human CDH6 with EC4 removed, on HEK293T cells (HEK293T-hCDH6-EC4 deletion) (human) (UniProt P55285); assay: FACS, HEK293T-hCDH6-EC4 deletion cells
[10] = biological target: human CDH6 with EC5 removed, on HEK293T cells (HEK293T-hCDH6-EC5 deletion) (human) (UniProt P55285); assay: FACS, HEK293T-hCDH6-EC5 deletion cells
[11] = biological target: T1, his-tagged human CDH6 extracellular …; assay: ELISA, antigen coated
[12] = biological target: T1, his-tagged human CDH6 extracellular …; assay: ELISA, antigen coated; remark: listed apart in the source
[13] = biological target: T1, his-tagged human CDH6 extracellular …; assay: SPR Biacore, antibody captured on Protein A chip

| Max OD450 [5] | EC50 [5] | Max MFI [6] | Max MFI [7] | Max MFI [8] | Max MFI [9] | Max MFI [10] | further results | Molecule |
| --- | --- | --- | --- | --- | --- | --- | --- | --- |
| 0.1 OD450 |  |  |  |  |  |  | Max MFI [1]: 64 MFI; Max MFI [2]: 63 MFI; Max OD450 [3]: 0.07 OD450; Max OD450 [4]: 0.06 OD450 | hIgG1 (antibody) |
| 1.62 OD450 | 0.023 nM |  |  |  |  |  |  | B1 |
| 2.38 OD450 | 0.051 nM | 11100 MFI | 7550 MFI | 689 MFI | 16800 MFI | 5610 MFI |  | B2 |
| 2.32 OD450 | 0.035 nM | 10200 MFI | 75 MFI | 15100 MFI | 22200 MFI | 6540 MFI |  | B3 |
| 1.92 OD450 | 0.046 nM | 112 MFI | 343 MFI | 12200 MFI | 18700 MFI | 4240 MFI |  | B4 |
| 1.6 OD450 | 0.025 nM |  |  |  |  |  |  | B5 |
| 2.12 OD450 | 0.058 nM | 88 MFI | 13000 MFI | 9060 MFI | 17400 MFI | 1020 MFI |  | B6 |
| 1.82 OD450 | 0.028 nM |  |  |  |  |  |  | B7 |
| 2.77 OD450 | 0.022 nM |  |  |  |  |  |  | B8 |
| 2.48 OD450 | 0.049 nM | 7210 MFI | 814 MFI | 755 MFI | 26600 MFI | 4040 MFI | Max OD450 [11]: 2.5 OD450; Max OD450 [12]: 2.65 OD450 | B9 |
| 0.6 OD450 |  | 5290 MFI | 8390 MFI |  | 11800 MFI | 1530 MFI |  | B10 |
| 2.42 OD450 | 0.039 nM | 23600 MFI | 39100 MFI | 16300 MFI | 20600 MFI |  |  | B11 |
| 1.77 OD450 | 0.04 nM |  |  |  |  |  |  | B12 |
| 2.76 OD450 | 0.016 nM |  |  |  |  |  |  | B13 |
|  |  |  |  |  |  |  | kon [13]: 2100 M⁻¹ s⁻¹ | B14 |
